B1: Azoarcus group I ribozyme (parent)
chain: GUGCCUUGCGCCGGGAAACCACGCAAGGGAUGGUGUCAAAUUCGGCGAAACCUAAGCGCCCGCCCGGGCGUAUGGCAACGCCGAGCCAAGCUUCGGCGCCUGCGCCGAUGAAGGUGUAGAGACUAGACGGCACCCACCUAAGGCAAACGCUAUGGUGAAGGCAUAGUCCAGGGAGUGGCGAAAGUCACACAAACCGG

Variants of B1 are the subject of the series. As to the kind of experiment: reverse-splicing fitness (ratio to wild type); higher = more active; in vitro selection; Mg2+ level not given. Put shortly: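 An in vitro group I ribozyme library with randomized positions was T7-transcribed and gel-purified. In triplicate, 10 pmol RNA in EPPS pH 7.5 was reacted with 50 pmoles of a 30-nt RNA substrate for 1 h at 37 °C across several added MgCl2 levels (1–48 mM), then stopped with EDTA. Products were reverse transcribed from a substrate-complementary primer, PCR-amplified and sequenced (HiSeq 4000). Fitness is a variant's read proportion after selection over that before, normalised to wild type.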
Take C82G A111C A145U C150G C169G U176A: the reverse-splicing fitness worked out at 0.00806.
For A120C A145C C150A U176A the value was 0.112; for C82A A111C A120U A145G C150A C169U U176G, 0.00328; for C82A A111C C150G C169U U176C, 0.0137.
For A120G C150U the value was 0.318; for A111C A120C A145C C150A C169A U176C, 0.00638; for C82U A111U A120U A145U C150A C169G U176C, 0.00231.
For the variant C82G A120U A145U C150G C169U U176C, the reverse-splicing fitness turned out to be 0.00223.
With A111G A120U C150A C169U U176C, the reverse-splicing fitness amounted to 0.00598.
As for C82U A111G A120C C150A C169U U176G, the reverse-splicing fitness came out at 0.00561.
For the variant C82U A111U A120C A145C C150A C169U, the reverse-splicing fitness was 0.0102.
On to C82G A111C A120C C150G C169A U176G, for which the reverse-splicing fitness stood at 0.00619.
For the variant C82A A120U C150U, the reverse-splicing fitness came out at 0.0723.
With C82A A111G A120G A145C C150G C169G, the reverse-splicing fitness was 0.00751.
For C82U A111C A145C C150U U176G the value was 0.00938.
On to C82A A120C C150G C169U, for which the reverse-splicing fitness was determined as 0.0104.
Consider A111U A120U C150A U176G, for which the reverse-splicing fitness worked out at 0.0103.
As for C82A A111G A120U A145G C150A C169U, the reverse-splicing fitness came to 0.00455.
Turning to C82U A111C A120U A145C C150U C169U U176G, the reverse-splicing fitness turned out to be 0.00224.
For the variant C82G A111C A120G C169U U176C, the reverse-splicing fitness was found to be 0.0141.
For C82G A120U A145G C169A U176A the value was 0.00356.
Turning to A120C U176A, the reverse-splicing fitness was found to be 0.663.
For C82G A111C A120G A145G C150A U176C the value was 0.0185; for C82U A111C A120C C150A U176C, 0.022; for C82A A111U A120C A145G C150U C169A U176A, 0.0182.
With A120C A145C C150U U176C, the reverse-splicing fitness is 0.317.
Take A111C A145U C150U C169U U176C: the reverse-splicing fitness was determined as 0.0241.
Take A111C A145U C150U C169U U176A: the reverse-splicing fitness came out at 0.0264.
With C82A A111C A120G A145G C150U C169A U176A, the reverse-splicing fitness stood at 0.016.
Regarding C82A A111C A120C A145G C150A C169U U176C, the reverse-splicing fitness was found to be 0.0136.
For C82G A111C A120U A145G C169U U176G, the reverse-splicing fitness was 0.0022.
In the case of C82G A111G A120U C150U C169A U176A, the reverse-splicing fitness stood at 0.00519.
Consider C82G A111U A120C A145G C150A U176C, for which the reverse-splicing fitness came to 0.0228.
Take C82A A111C A145C C150U C169U U176A: the reverse-splicing fitness is 0.0133.
For C82G A120U A145G C150U U176C, the reverse-splicing fitness was determined as 0.0776.
Turning to C82U A111U A120U C150G C169A U176A, the reverse-splicing fitness was 0.004.
In the case of C82A A111C A120C A145G C169U U176C, the reverse-splicing fitness worked out at 0.0138.
For C82A A111C A120C A145G C169U U176G the value was 0.00652; for C82U A111U A120G A145U C150U C169U U176C, 0.0139.
As to C82U A120U A145U C150G C169G U176C, the reverse-splicing fitness came out at 0.00209.
In the case of C82G A111G A120U A145C C150A C169U, the reverse-splicing fitness is 0.00246.
Consider C82A A111G A120G C169A U176G, for which the reverse-splicing fitness is 0.00477.
On to C82U A111C A120U C150G C169U U176A, for which the reverse-splicing fitness amounted to 0.00421.
As to C82A A120C A145U C150U C169G U176G, the reverse-splicing fitness stood at 0.00507.
For the variant C82G A111G A120C A145U C150A C169G, the reverse-splicing fitness is 0.00822.
As for C82A A111C A120U A145U U176G, the reverse-splicing fitness is 0.00339.
For C82G A111C A120U A145C C169G U176G the value was 0.00197.
For C82A A111C A120U U176A the value was 0.00732.
On to C82A C169U, for which the reverse-splicing fitness was 0.0153.
Regarding C82G A111U A145U C150G C169G U176C, the reverse-splicing fitness amounted to 0.00646.
On to A111G C169U U176A, for which the reverse-splicing fitness came to 0.0489.
For C82G A111U A120C A145C C169A the value was 0.00886; for C82U A111C A120G C150G C169U, 0.00766.
For C82U A111G A120G C150A C169G U176G the value was 0.00435.
Turning to A111U A145G C150G C169U U176G, the reverse-splicing fitness was 0.0076.
Consider C82A A145U C150A C169U U176G, for which the reverse-splicing fitness came to 0.00584.
For A111U A120G A145G C150G C169U U176A the value was 0.0113; for C82A A111U A145U C150G C169A, 0.00877.
Regarding C82A A111C A120G A145C C150G C169G U176A, the reverse-splicing fitness came to 0.00836.
Regarding C82A A111C A120U A145G U176A, the reverse-splicing fitness came out at 0.00698.
For A111C A120G C150A C169A U176G the value was 0.00594.
For C82A A120G A145C C169U U176C the value was 0.0129.
Regarding C82A A111G A120C C150A C169U, the reverse-splicing fitness came out at 0.011.
For C82U A111G A120G A145U C150U U176G, the reverse-splicing fitness amounted to 0.00411.
As to C82G A111C A120G C150U C169A U176A, the reverse-splicing fitness stood at 0.0141.
Turning to C82G A111G A120G A145U C150G C169U U176G, the reverse-splicing fitness came to 0.00523.
Regarding A111G A120C A145C C150U C169G U176G, the reverse-splicing fitness was 0.0049.
C82U A120C A145U C150A C169G U176A: the reverse-splicing fitness was found to be 0.00898.
Regarding C82A A111G A120G A145C C169G U176C, the reverse-splicing fitness amounted to 0.0178.
For the variant A111G A120U A145C C150A U176C, the reverse-splicing fitness worked out at 0.00924.
For A111C C150A C169U U176C the value was 0.0184; for C82U A111U A145G C150A C169G U176C, 0.0254.
For A111G A120C A145G C150A C169A U176A the value was 0.0185.
C82G A111G A145G C150A C169U U176C: the reverse-splicing fitness amounted to 0.0162.
On to C82U A120G C150U C169U U176G, for which the reverse-splicing fitness stood at 0.00509.
For C82U A120U A145C C150U C169U U176C the value was 0.00187.
Turning to C82U A111C A120G A145C C169U U176G, the reverse-splicing fitness amounted to 0.00308.
C82A A111C A120C A145U C150U C169U: the reverse-splicing fitness was found to be 0.0124.
In the case of C82U A111G A120C C150A U176C, the reverse-splicing fitness worked out at 0.0187.
For the variant A120G A145C C150U, the reverse-splicing fitness amounted to 0.166.
For C82U A111G A120U C150A U176A the value was 0.00587; for C82A A111G, 0.435; for A111C A120C C150G C169G U176G, 0.00564.
As to C82G A111U A120C A145U U176A, the reverse-splicing fitness came out at 0.0204.
